The nanobody polyreactivity screen of Harvey et al. (2022)

Experiment: yeast display, Sf9 membrane polyspecificity reagent, FACS + sequencing; frameworks hold sequencing errors
How it was run: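 After 36–48 hours of galactose induction, yeast (Saccharomyces cerevisiae BJ5465) displaying a synthetic nanobody library were stained at 4 °C for 1 hour with 10% biotinylated, detergent-solubilized Sf9 membrane reagent. Streptavidin microbeads enriched the stained cells before FACS sorting into low and high (top ~1%) gates on anti-HA and streptavidin fluorescence. Each clone's polyreactivity label reflects its gate of origin.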

QVQLVESGGGLVQAGGSLRLSCAASGFIFYVNAMGWYREAPGNERQLVAAISLIGGSTYYADSVKGRFTISRDNAKNTVYLQMNSLIPEDTAVYYCAADPFPGVYDDAIIDYDYWGQGTQVTVSS
polyreactivity (PSR sort gate): low polyreactivity

QVQLVESGGGLVQAGGSLRLSCAASGYTFPQYAMGWYRQAPGKERELVAAITRRGGSTYYADSVKGRFTISRDNAKNTVYLQMNSLKPEDTAVYYCASDSYPYSLGGDYWGQGTQVTVSS
polyreactivity (PSR sort gate): high polyreactivity

QVQLVESGGGLLQAGGSLRLSCAASGSIFGYNAMGWYRQAPGKERELVAAISYSGGSTYYADSVKGRFPISRDNAKNTVYLQMNSLKPEDTAVYYCAKAGRYANLPYGYWGQGTQVTVSS
polyreactivity (PSR sort gate): high polyreactivity

QVQLVESGGGLVQAGGSLRLSCAASGSIFRSNAMGWYRQAPGKERELVAAISRSGGRTYYADSVKGRFTISRDNAKNTVYLLMNSLKPEDTAVYYCAAQVVRSLKYEYWGQGTQVTVSS
polyreactivity (PSR sort gate): high polyreactivity

QVQLVDSGGGLVQAGGSLRLSCAASGRTFRTNAMGWYRQAPGKERELVAAISSNGGTTYYADSVKGRFTISRDNAKNTVYLQMNSLKPEDTAVYYCNIESQYLWPEFDYWGQGTQVTVSS
polyreactivity (PSR sort gate): low polyreactivity

QVQLVESGGGLVQAGGSLRLSCAASGSIFRYYTMGWYRQAPGKERELVAAISWSGGSTYYADSVKGRFTISRDNAKNTVYLQMNSLKPEDTPVYYCNAVSFAYNPYSGTYDYRGQGTQVTVSS
polyreactivity (PSR sort gate): high polyreactivity

QVQLVESGGGLVQAGGSLRLSCAASGSIFSSYAMGWYRQAPGKERELVAAISGSGGSTFYADSVKGRFTISRDNAKNTVYLQMNSLKPEDTAVYYCAARYYWYGRAGKKHASYYYWGQGTQVTVSS
polyreactivity (PSR sort gate): high polyreactivity

QLQLVESGGGLVQAGGSLRISCAASGFIFNGYAMGWSRQAPGKERELVAAITADVGDTYYADSVKGRFTLSRDNAKYTVYLQLNSLKPDDPAVYYCAADQAEWLDPDDYWGQGTQVTVSS
polyreactivity (PSR sort gate): low polyreactivity

QVHLVESGGGLVLAGGSLRLSCAASGIIFTYAMGWYRHAPGNERELVAAIDWRGGRTYYADSLKGRFTISRDNAKNTFYLQMNSLKPEDTAVYYCAPRLPGGTYYWGQGTQVTESS
polyreactivity (PSR sort gate): high polyreactivity

QVQLVESGGGLVQAGGSLRLSCAASGRIFWVYAMGWYRQAPGKERELVAAIDWSDGITYYADSVKGRFTISRDNAKNTVYLQMNSLKPEDTAVYYCAAESVIYQTYNYWGQGTQVTVSS
polyreactivity (PSR sort gate): high polyreactivity

QVQLVESGGGLVEAGGSLRLSCAASGRIFLSYAMGWYRQAPGKERELVATITDRGGRTYYADSVKGRFTISRDNAKNTVYLQMNSLKAEDTAVDYCAAGLVYRGYRRDYWGQGTQVTVTS
polyreactivity (PSR sort gate): low polyreactivity

QVQLVESGGGLVQAGGSLRLSCAASGLTFYSNAMGWYRQAPGKERELVAAITWRSVRTYYADSVKGRFTISRDNAKNTVYLQMNSLKPEDTAVYYCAAASASRHGEYDYWGQGTQVTVSS
polyreactivity (PSR sort gate): low polyreactivity

QVQLVESGGGLLQAGGSLRLSCASSGRTFKANAMVWYRQAPGKERELVAAISYSGGNTYYADSVKGRFTISRDNANNTVYLQMNSLKPEDTAVYYCARYYYLPVVDMDYWGQGTQVTVSS
polyreactivity (PSR sort gate): high polyreactivity

QVQLVESGGGLVQAGGSLRLSCAASGRTFSYYAMGWYRQAPGKERELVAAISRAGRTNYADSVKGRFTISRDNAKNTVYLQMHSLKPEDTAVYYCAADLAYGRPFVSYRTRDWGQGTQVTVSS
polyreactivity (PSR sort gate): high polyreactivity

QVQLVESGGGLVQAGGSLRLSCAASGRIFGYYAMGWYRQAPGKEREWVAAINSGGSTNYADSVKGRFTISRDNAKNTVYLQMNSLIPEDTAVYYCAAGWRYRYFRSRNFYPYYYWGQGTQVTVSS
polyreactivity (PSR sort gate): high polyreactivity

QVQLVESGGGLVQAGGSLRLSCAASGFTFPRNVMGWYRQAPGKERELVATISSGGRTNYADSVKGRFTISRDNAKNTVYLQMNSLKPEDTAVYYCAARVYTYYYDLHKRYYWGQGTQVTVSS
polyreactivity (PSR sort gate): high polyreactivity

QVQLVESGVGLVQAGGSLRLSCAASGYTFQINAMGWYRQAPGKERELVAAITSGGRTYYADSVKGRFTISRDNAKNTVYLQMNSLKAEDTAVYYCNKVPRRGVDYWGQGTQVTVSW
polyreactivity (PSR sort gate): low polyreactivity

QVQLVESGGGLVQAGGSLRLSCAASGSIFDTYAMGWYRQAPGKERELVAAISSGGRTYYADSVKGRFSISRDNAKNTVYLQMNSLKPEDTAVYYCAVRPRPGYYYWGQGTQVSVSS
polyreactivity (PSR sort gate): high polyreactivity

QVQLVHSGGGLVQEGGSLRLSCAASGSIFYSYGMGWYRQAPGKERELVAAITSSGGGTYYADSVKGRFTISRDNAKNNVYLQMNSVKAEDTAVYYCAADDRNYNYYPTFYYWGQGTQVTVSS
polyreactivity (PSR sort gate): low polyreactivity

QVQLVESGGGLVQAGGSLRLSCAASGSIFVRNGMGWYRQAPGKERELVASITSGTITYYADSVKGRFTISRDNAKNTVYLQMNSLKPEDTAVYYCAAYQYPADFKLYYYWGQGTQVTVSS
polyreactivity (PSR sort gate): high polyreactivity

QVQLVESGGGLVQAGGSLRLSCAASGSTFSLYTMGWYRQAPGKERELVAAITNGGSTKYADSVKGRFTISRDNAKNTVYLQMNSLKPEDTAVYYCAALYTHYYWIEYDYWGQGTQVTVSS
polyreactivity (PSR sort gate): low polyreactivity

QVQLVESGGGLVQAGGSLRLSCAASGRITVFYTMGWYRQAPGKERELVATITRSGSRTYYADSVKGRFTISRDNAKNTVYLQMNSLKPEDTAVYYCARSQAVYDGWFAKFGYWGQGTQVTVSS
polyreactivity (PSR sort gate): low polyreactivity

QVQLVESGGGLVQAGGSLRLSCAASGFIFTGYAMGWYRQAPGKERELVAAISSSGGRTYYADSVKGRFTISRDNAKNTVYLQMNSLKPEDTAVYYCAAYYITFIGRGYGYWGQGTQVTVSS
polyreactivity (PSR sort gate): high polyreactivity

QVQLVESGGGLVQAGGSLRLSCAASGSILYINAMGWYRQAPGKERELVAAITYSGGSTYYADSVKGRFTISRDNAKNTVYLQMNSLKPEDTAVYYCAADAVVAGRYDGHDYWGQGTQVTVSS
polyreactivity (PSR sort gate): low polyreactivity

QVQLVESGGGLVQAGGRLRLSCAASGRIFAANVMGSYRQAPGKERELVAAISWNGGSTYYADSEKGRFTISRDNAKKSVYLQLNSLKPEDTAVYYCAVRGSYRVWYDYWGQGTQVTVSS
polyreactivity (PSR sort gate): high polyreactivity

QVQLVESGGGLVQAGGSLRLTCAASGRNFSQNAMGWYRQAPGKERELVAAISVTGGRTYYADSVKGRFTISRDNAKNTVYLQMNSLKPEDTAVYYCAKRTRSPGYYYWGQGTQVTVSS
polyreactivity (PSR sort gate): high polyreactivity

QVQLVESGGGLVQAGGSLRLSCAASGRTFLRYAMGWYREAPGKERELVAAITYGGRTNFADSVKGRFTISRDNAKNTVYFQMNSLKPEDTAVYYCAADRTYYYGLRVDYWGQGTQVTVSS
polyreactivity (PSR sort gate): high polyreactivity

QVQLVESGGGLVQAGGSLRLSCAASGFTYLYNAMGWYRQAPGKERELVASINSGGSTNYADSVKGRFTISRDNAKNSVYLQMNSLKPEDTAVYFCNAKRLVRKGDYWGQGTQVTVSS
polyreactivity (PSR sort gate): low polyreactivity

QVQLIESGGGLVQAGGSLRLSCAASGFTFYYNTMGWYRQAPGKERELVAAITRSVGSTYYADSVKGRFTISRDNAKNTVYLQMNSLKPEDTAVYYCAARRLGYYRKVKELDYWGQGTQVTVSS
polyreactivity (PSR sort gate): high polyreactivity

QVQLVESGGGLVQAGGSLRLSCAASGSIFYGYAMGWYRPAPGKERELVAAINWSGGGTYYADSVKGRFTISRDNAKNTVYLQMNSLKPEDTAVYYCAAGHVVRRPYLIYDYWGQGTQVTVSS
polyreactivity (PSR sort gate): high polyreactivity

QVQLVESGGGLVQAGGILRLSCAASGSTFESNTMGGYRQAPGKERELVAAISYSGGRTYYADSVKGRFTISRDNAKNTVYLQMNSLKPEDTAVYYCAARWSVSYHYWGQGTQVTVSS
polyreactivity (PSR sort gate): high polyreactivity

QVQLVESGGGLVQAGGSLRLSCAASRSIFPYNVMGWYRQAPGTEMELVAAISTRGGRTYYADSVKGRFTISRDYAKNTVYLQMNSLKPEDTAVYYCATAGGPYSDSGYYWGHGTQVTVSS
polyreactivity (PSR sort gate): high polyreactivity

QVHLVESGVGLVQAGGSLRLSCASSGRIFYDNSMGWYRQAPGKERELVAAISYRGGSTYYADSVKGRFTISRDNAKNTVYLLMNSLKPEDTAVYYCARAGFTTCPDHDSWGQGTQVTVSS
polyreactivity (PSR sort gate): high polyreactivity

QVQLVESGGGLVQAGGSLRLTCAASGSTFSPYAMGWYRQATGKERELVAAISASGGGTYYADSVKGRFTISRDYAKNTVYLQMNRLIPVDTAVYYCARDYGWDISKGRYGYWGQGTQVTVSS
polyreactivity (PSR sort gate): low polyreactivity

QVQLVESGGGLVQAGGSLRLSCAASGSIFEQYTMGWYRQAPGKERELVAAISRRYGRTYYADSVKGRFTISRDNAKNTVYLQMNSLKPEETAVYYCNTVYYGNFYSTRYDYWGHGTQVTVSS
polyreactivity (PSR sort gate): high polyreactivity

QVQLVESGGGLVQAGGSLRLSCAASGRIYGVYVMGWSRQAPGKERELVAAISWGGGTYYADSVKGRFTISRDNSKNTVTLKMNSLKPEDTAVYYCNAESYYTMYYWGQGTQVTVSS
polyreactivity (PSR sort gate): low polyreactivity

QVQLVESGGGLLQAGGSLRLSCAASGSIFYGYAMGWYRQAPGKERELVAAITRGGGTYYADSVKGRFTNSRDNAKITVYLQMNSLKPEDTAVYYCALSFYRRYTPYDYWGQGTQLTVSS
polyreactivity (PSR sort gate): high polyreactivity

QDLLVESGGGLVQAGGSLRLSCAASGSIFDDYAMGWYRQAPGKERELVAAISSSGTSTYYADSVKGRFTISRDHAKNTVYLQMNSLIPEYTAVYYCAARSAILKSGYLKDYWGQGTQVTVSS
polyreactivity (PSR sort gate): low polyreactivity

QVQHVESGGGLVQAGGSLRLSCAASGRIFYFNAMGWSSQAPGKERELVAAISGSGGDTYYADSVKGRFTISRDNAKNTVYLQMNSLKPEDTAVYYCAAEVYPWGQGTQVTVAS
polyreactivity (PSR sort gate): low polyreactivity

QVQLVESGGGLVQAGGSLSLSCAASGLTFPKYAMGWYRQAPGKERELVDRISYSGASTYYADSVKGRFTISRDNAKNTVYLQMNSLKPEDTAVYYCAARIYRVYYVDFAPYYYWGQGTQVTVSS
polyreactivity (PSR sort gate): high polyreactivity

QVQLVESGGGLVQAGGSLRLSCAASGSIFGSYAMGWYRQAPGKERELVAAISGSGGRTYYADSVKGRFTISRDNAKNTVYFQMNSLKPEVTAVYYCAAAYPRVTYKYGYYWGLGTQVTVSS
polyreactivity (PSR sort gate): high polyreactivity

QVQLVESGGGLVQAGGSLRLSCAASGSIFPSNVMGWYRQAPGKERELVAAISTTGSTYYADSVKGRFTISRDNAKNTVYLQMNSLKTEDTAVYDCAAEYWSYAHGGQLYGYDYWGQGTQVTVSS
polyreactivity (PSR sort gate): low polyreactivity

QVHLVESGGGFVQAGGSLRVSCAASGRSCGYNAMGWYRQAPGKERELVAAITSGGSTYYADSVKGRFTISRDNAKHTVYLQMNSLKPEDTAVYYCAARFSYWKTKRAYDWGQGTQVTVSS
polyreactivity (PSR sort gate): high polyreactivity
